Assay: Hematology of a healthy dog given 1.5 mg/kg on day 1 and 2.0 mg/kg on day 70, sub-mucosa
Format: in vivo
Experimental: Before each dose, the dog was examined by clinical chemistry, hematology, and urinalysis. Additional examinations of clinical chemistry and hematology were performed on days 7, 14, and 42 after the first dose. Additional tests of urinalysis were performed on days 7 and 14 after the first dose. The potential drug-induced toxicities were monitored for 56 days after the second dose. Specifically, clinical chemistry and urinalysis were performed on days 7, 14, 21, and 56, and hematology was performed on days 7, 14, and 56 after the second dose to evaluate the tolerability and toxicity of the formulation.
Hematology examinations were performed at pre- and post-dose for both injections. The injections were given via the sub-mucosa in the mouth.

In the case of “HA-cis-[Pt(NH3)2(N^α-Acetyl-L-Lysine)] [75HA-Lys-Pt]”, the “Differential white blood cell count, % BASO” value (2 mg/kg, 7 days after) is reported as 0.9%, the “Differential white blood cell count, % EOS” value (2 mg/kg, 7 days after) is reported as 1.9% and the “Differential white blood cell count, % LUC” value (2 mg/kg, 7 days after) is reported as 0.8%. For the same substance, the “Differential white blood cell count, % LYMPH” value (2 mg/kg, 7 days after) was 29%, the “Differential white blood cell count, % MONO” value (2 mg/kg, 7 days after) was 7.5% and the “Differential white blood cell count, % NEUT” value (2 mg/kg, 7 days after) was 60%. The Hematocrit (2 mg/kg, 7 days after) was 38%, the Hemoglobin (2 mg/kg, 7 days after) was 12.7 g/dL and the Hemoglobin distribution width (2 mg/kg, 7 days after) was 1.84 g/dL. For the same substance, the “Mean corpuscular (cell) hemoglobin” value (2 mg/kg, 7 days after) was 21.9 pg, the “Mean corpuscular (cell) hemoglobin concentration” value (2 mg/kg, 7 days after) was 33.4 g/dL and the “Mean corpuscular (cell) volume” value (2 mg/kg, 7 days after) was 65.6 fL. The Platelet count (2 mg/kg, 7 days after) was 36 10^3/μL, the “Red blood cell count” value (2 mg/kg, 7 days after) was 5.79 10^6/μL and the “Red cell distribution width” value (2 mg/kg, 7 days after) was 13.5%. For the same substance, the Reticulocyte count (2 mg/kg, 7 days after) was 1.59%, the “White blood cell count” value (2 mg/kg, 7 days after) was 8.2 10^3/μL and the “Differential white blood cell count, % BASO” value (2 mg/kg, 14 days after) was 0.5%. For the same substance, the “Differential white blood cell count, % EOS” value (2 mg/kg, 14 days after) was 3.4%, the “Differential white blood cell count, % LUC” value (2 mg/kg, 14 days after) was 0.6% and the “Differential white blood cell count, % LYMPH” value (2 mg/kg, 14 days after) was 28.5%. For the same substance, the “Differential white blood cell count, % MONO” value (2 mg/kg, 14 days after) was 4.3%, the “Differential white blood cell count, % NEUT” value (2 mg/kg, 14 days after) was 62.7% and the Hematocrit (2 mg/kg, 14 days after) was 35.6%. For the same substance, the Hemoglobin (2 mg/kg, 14 days after) was 11.8 g/dL, the Hemoglobin distribution width (2 mg/kg, 14 days after) was 2.33 g/dL and the “Mean corpuscular (cell) hemoglobin” value (2 mg/kg, 14 days after) was 21.6 pg. The “Mean corpuscular (cell) hemoglobin concentration” value (2 mg/kg, 14 days after) was 33.1 g/dL, the “Mean corpuscular (cell) volume” value (2 mg/kg, 14 days after) was 65.2 fL and the Platelet count (2 mg/kg, 14 days after) was 232 10^3/μL. For the same substance, the “Red blood cell count” value (2 mg/kg, 14 days after) was 5.47 10^6/μL, the “Red cell distribution width” value (2 mg/kg, 14 days after) was 14.2% and the Reticulocyte count (2 mg/kg, 14 days after) was 3.2%. The “White blood cell count” value (2 mg/kg, 14 days after) was 10.43 10^3/μL, the “Differential white blood cell count, % BASO” value (2 mg/kg, 56 days after) was 0.7% and the “Differential white blood cell count, % EOS” value (2 mg/kg, 56 days after) was 4.3%. The “Differential white blood cell count, % LUC” value (2 mg/kg, 56 days after) was 0.5%, the “Differential white blood cell count, % LYMPH” value (2 mg/kg, 56 days after) was 26.6% and the “Differential white blood cell count, % NEUT” value (2 mg/kg, 56 days after) was 63.4%. The Hematocrit (2 mg/kg, 56 days after) was 36.9%, the Hemoglobin (2 mg/kg, 56 days after) was 12.1 g/dL and the Hemoglobin distribution width (2 mg/kg, 56 days after) was 2.04 g/dL. The “Mean corpuscular (cell) hemoglobin” value (2 mg/kg, 56 days after) was 21.4 pg, the “Mean corpuscular (cell) hemoglobin concentration” value (2 mg/kg, 56 days after) was 32.8 g/dL and the “Mean corpuscular (cell) volume” value (2 mg/kg, 56 days after) was 65.4 fL. The “Red blood cell count” value (2 mg/kg, 56 days after) was 5.64 10^6/μL, the “Red cell distribution width” value (2 mg/kg, 56 days after) was 13.7% and the Reticulocyte count (2 mg/kg, 56 days after) was 1.3%. For the same substance, the “White blood cell count” value (2 mg/kg, 56 days after) was 11.3 10^3/μL, the “Differential white blood cell count, % BASO” value ([…], 7 days after) was 0.7% and the “Differential white blood cell count, % EOS” value ([…], 7 days after) was 2.0%. For the same substance, the “Differential white blood cell count, % LUC” value ([…], 7 days after) was 0.6%, the “Differential white blood cell count, % LYMPH” value ([…], 7 days after) was 37.6% and the “Differential white blood cell count, % NEUT” value ([…], 7 days after) was 55.4%. It also gave a Hematocrit ([…], 7 days after) of 37.8%, a Hemoglobin ([…], 7 days after) of 12.7 g/dL and a Hemoglobin distribution width ([…], 7 days after) of 2.08 g/dL. For the same substance, the “Mean corpuscular (cell) hemoglobin” value ([…], 7 days after) was 23.0 pg, the “Mean corpuscular (cell) hemoglobin concentration” value ([…], 7 days after) was 33.6 g/dL and the “Mean corpuscular (cell) volume” value ([…], 7 days after) was 68.4 fL. The “Platelets (footnote a)” value ([…], 7 days after) was “^aPlatelets appear adequate. Platelet clumps observed, number not reported”, the “Red blood cell count” value ([…], 7 days after) was 5.53 10^6/μL and the “Red cell distribution width” value ([…], 7 days after) was 13.3%. For the same substance, the Reticulocyte count ([…], 7 days after) was 1.40%, the “White blood cell count” value ([…], 7 days after) was 7.69 10^3/μL and the “Differential white blood cell count, % BASO” value ([…], 14 days) was 0.7%. For the same substance, the “Differential white blood cell count, % EOS” value ([…], 14 days) was 2.0%, the “Differential white blood cell count, % LUC” value ([…], 14 days) was 0.6% and the “Differential white blood cell count, % LYMPH” value ([…], 14 days) was 37.6%. The “Differential white blood cell count, % NEUT” value ([…], 14 days) was 55.4%, the Hematocrit ([…], 14 days) was 38.2% and the Hemoglobin ([…], 14 days) was 12.6 g/dL. For the same substance, the Hemoglobin distribution width ([…], 14 days) was 2.29 g/dL, the “Mean corpuscular (cell) hemoglobin” value ([…], 14 days) was 22.6 pg and the “Mean corpuscular (cell) hemoglobin concentration” value ([…], 14 days) was 33.0 g/dL. The “Mean corpuscular (cell) volume” value ([…], 14 days) was 68.7 fL, the Platelet count ([…], 14 days) was 307 10^3/μL and the “Red blood cell count” value ([…], 14 days) was 5.56 10^6/μL. The “Red cell distribution width” value ([…], 14 days) was 13.7%, the Reticulocyte count ([…], 14 days) was 1.84% and the “White blood cell count” value ([…], 14 days) was 12.91 10^3/μL. For the same substance, the “Differential white blood cell count, % BASO” value ([…], 42 days) was 1.4%, the “Differential white blood cell count, % EOS” value ([…], 42 days) was 2.0% and the “Differential white blood cell count, % LUC” value ([…], 42 days) was 0.8%. For the same substance, the “Differential white blood cell count, % LYMPH” value ([…], 42 days) was 37.6%, the “Differential white blood cell count, % MONO” value ([…], 42 days) was 5.1% and the “Differential white blood cell count, % NEUT” value ([…], 42 days) was 53.1%. It also gave a Hematocrit ([…], 42 days) of 46.4%, a Hemoglobin ([…], 42 days) of 15.3 g/dL and a Hemoglobin distribution width ([…], 42 days) of 1.71 g/dL. The “Mean corpuscular (cell) hemoglobin” value ([…], 42 days) was 22.4 pg, the “Mean corpuscular (cell) hemoglobin concentration” value ([…], 42 days) was 33.0 g/dL and the “Mean corpuscular (cell) volume” value ([…], 42 days) was 67.9 fL. For the same substance, the Platelet count ([…], 42 days) was 307 10^3/μL, the “Red blood cell count” value ([…], 42 days) was 6.83 10^6/μL and the “Red cell distribution width” value ([…], 42 days) was 12.4%. The “White blood cell count” value ([…], 42 days) was 10.82 10^3/μL.
